Data from the nanobody polyreactivity screen of Harvey et al. (2022).

Test: yeast display, Sf9 membrane polyspecificity reagent, FACS + sequencing; frameworks hold sequencing errors
Outline: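 In a synthetic yeast display library (Saccharomyces cerevisiae BJ5465), nanobody expression was induced with galactose for 36–48 hours. FACS gates were set low and high (top ~1%) using anti-HA fluorescence for expression and streptavidin fluorescence for binding of the Sf9 membrane reagent. Each polyreactivity label is drawn from the gate of origin.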

Row | Sequence | polyreactivity (PSR sort gate)
1 | QVQLVESGGGLVQAGGSLRLSCAASGSIRVTNDMGWYRQATGKERELVAAITSIGGSTNYADSVKGRFTISRDNAKNPVYLQMNSLKPEDTAVYYCNVYLGILYKYDYWGQGTQVTVSS | low polyreactivity
2 | QVQLVESGGGLVQAGGSLRLSCAASAGTFWNAMGWYRQAPGKERELVATITSGSSTNYADSVKGRFTISRDNAKNTVYLQMNSLKPEDTAVYYCNARTIPWPYIVSYDYWGQGTQVTVSS | high polyreactivity
3 | QVQLVESGGGLVQAGGSLRLSCAASGSIFVRNAMGWYRQAPGKERELVAAISRSGSSTYYADSVKGRFTISRDIAKNTVYLQMNSLKPEDTAVYYCAARRRYKMDYWGQGTQVTVSS | high polyreactivity
4 | QVQLQESGGGLVQVGGSLRLSFAASGTIFIYGFLGWNLQAPGKERELVASINLGGITNYADSVKGRFTISRDNAKNTVYLQMLSLKPEDTAVYYCAAYVVTGQNYGYWGQGTQVTVSS | low polyreactivity
5 | QVQLVESGGGLVQAGGSLRLSCAASGSTLQRYAMGWYRQAPGKERELVAAISSGGRTYYADSVKGRFTISRDNAKNTVYLQMNRLKPEDTAVYYCAAVLPARSEPVRYYYWGQGTQVTVSS | high polyreactivity
6 | QDQLVESGGGLVQAGGSLRLICASSGSNFESNTMGWYRQAPGKERELLAAINWSGGRTYYADSVKGRFSISRDNAKNTVYLQINSLKPEDTAVYYCATGTYSDYKLGQQLWGRYNYWGQGTQVSVSS | high polyreactivity
7 | QVQLVESGGGLVQAGGSLRLSCAASGFICRGNAMGLYRQAPGKERELVASISRTGDTTYYADSVKGRFTISRDNAKNTVYLQMNSLTPEDTAVYYCARRSRVGYPLDSWGQATQVTVSS | high polyreactivity
8 | QVQLVESGGGLVQAGGSLRLSCAASGYIFRVYAMGWYRQAPGKERELVAAISSGGSTYYADSVKGRFTISRDNAKNTVYLQMNSLKPEDTAVYYCAKAGLALYAFRDDYWGQGTQVTVSS | low polyreactivity
9 | QVQLVESGGGLVQAGGSLRLSCAATGSIFYFNAMGWYRKAPGKERELVADISGSGGSTYYADSVKGRFTISRDNAKNTVYLQMNSLKPEDTAVYYCAARLYLHSWWYYAYDYWGQGTQVTVSS | high polyreactivity
10 | QVQLVESGGGLVQAGGSLRLSCAASGSIFYTYAMGWYRQAPGKEREFVASITYRGSNTYYADSVKGRFTISRDNAKNTVYLQMNSLKPEDTAVYYCAADSFYYRPEYDYWGQGTKVTVSS | low polyreactivity
11 | QVQLVDSGGGLVQAGGSLRLTCDASGSTFYVNFMGWYRQAPGKERELDALIDWRGGSTYYADSVKGRFTISRDNAKNTVYLQMNSLKPEDTAVYYCKKDAQFYYKLPYYKERDWGQGTQVTVSS | low polyreactivity
12 | QVQLVESGGGLVQAGGSLRLSCAASGSTFSFNAKGWYRQAPGKARELVAAITGGDGTNYADSVKGRFTISRDNAKNTVYLQMNSLKPEDTAVNYCAADQWGSTEDYWFTYGYWGQGTQVTVSS | low polyreactivity
13 | QDQLVESGGGLVQAGRSLRLSCAASGSIFTVYAMGWYRQAPGKEWELVASISTGGSTNYADSVKGRFTISRDNAKNTVYLPMISLKPEDTAVYYCAATGWAYGYGYGYWGQGTQVTVSS | low polyreactivity
14 | QVQLVESGGGLVQAGGSRRLSCAASGFIFSGYAMGWYRQERGKERELVAAITRSGSRTYYADSVKGRFTISRDNAKNTVYLQMNSLKPEDTAVYYCAKDKPKYGISTIDYWGQGTLVTVSS | high polyreactivity
15 | QVQLVESGGGLVQAGGSLRLSCAASGSIFGINVMGWYRHAPGKDREFVAAITSGTSTYYADSVKGRFTISRDNAKNSVYLQMNSLKPEDTAVYYCAALWSSRFVVHPQWYDYWGQGTQVTVSS | low polyreactivity
16 | QVQIVETGGGLVQAGGSLRISCAASGSTLIRNVMGWYRQAPGKERELVAAINTRGTTTYYADSVKGRFTISRDNAKNTVYLQMNSLKPEDTAVYYCAAYAYSAYSPDGQRSRYYYWGLGTQVTVSS | high polyreactivity
17 | QVQLVESGGGLVQAGGSLRLSCAASGFIFSKNAMGWYRQAPGKERELVARITRRVGSTYYADSVKGRFTISRDNAKNTVYIQMNSLKPEDTAVYYCAVLPRVKDGTGGDYWGQGTQVTVSS | high polyreactivity
18 | QVQLVESGGGLVQAGGSLRLSCAASGSIIFVYAMGCYRQAPGKERELVAGINSSGTSTYADSVKGRFTISRDNAKNTVYLQMNSLKPEDTAVYYCAARWFYYRWAYDYWGQGTQVTVSS | low polyreactivity
19 | QVQLVESGGGLVQAGGSLRLSCAASGSIVYYYAMGWYRQAPGKERELVAAITRSGGSTYYADSVKGRFTISRDNAKNTVYLQMNSLKPEDTSVYYCAKDAHAYRDLDYWGQGTQVTVSS | low polyreactivity
20 | QVQLVESGGGLVQAGGSLRLSCAASGLTFDWYAMGWYRQAPGKERELVAAISWNGVSTDYADSVKGRFTISRDNAKNTVYLQMNSLKPEDTAVYYCAADPPWYLYVGFDYWGQGTQVSVSS | high polyreactivity
21 | QVQLVESGGGLVQAVGSLRLICDASGSTFYKYSMGWYRQAPGKERELVAAITTSGTGTYYADSVKGRFTISRDNAKNTVYLEMNSLKPEDTGVYYCNARIVYRVGVSRMYYWGQGTQVTVSS | high polyreactivity
22 | QVQLVESGGGLVQAGGSLRLSCAASGSTFKYYAMGWYRQAPGKERELVASITSGGSTYYADSVKGRFTISRDNAKNTVYLQMNSLKPEDTAVYYCNKRWITSYYTRYDYWGQGTQVTVSS | high polyreactivity

Row | Sequence | polyreactivity (PSR sort gate)
23 | QVQLQESVGGLVQAGGSLRLSCAASGYISSWYPMGWYRQAPGKEREFVATIAPVATTYYADSVKGRFTISRDYAKNSVYLQMNSLKPEDTAVYYCAAGPENNDFYSYWGQGTQVTVSS | low polyreactivity
24 | QVQLVESGGGLVQAGGSLRLSCAASGRTFRYYAMGWYRPAPGKERELVAAITISSGSTYYADSVKGRFTISRDNAKNTVYLQMNSLKPEDTAVYYCAATRRYHFDYWGQGTQVTVSS | high polyreactivity
25 | QVQLVESGGGLVQAGGSLRLSCAASGLTFSNYAMGWYRQAPGKEREFVAAISASGGSTYYAHSVKGRFTISRDYAKNTVYLQMNRLTPEDTAVYYCAASTTRPVYPANDDYWGQGTQVTVSS | low polyreactivity
26 | QVQLVESGGGLVQAGGSLRLSCAASGSTYYTNAMGWYRQAPGKERELVATITSSGGITSYADSVKGRFTISRDNAKNTVYLQMNSVKPEDTAVYYCAADFGSSYDTHEYGYWGQGTQVTVSS | low polyreactivity
27 | QVQLVESGGGLVQAGGSLRLSCAASGFIFRVYAMGWYRQAPGKERELVATITYDGGRTYYADSVKGRFTISRDNAKNTVYLQMNSLKPEDTAVFGYWGQGTQVTVSS | low polyreactivity
28 | QVQLVESGGGIVQAGGSLRLSCAASGSIFDYYTKAWYRQAPGKEREMVAAISWSGGSTYYADSVKGRFTISRDNAKNTVYLQMYSLKPEDTAVYYCATRVRTRTGYQYYYWGQGTQVTVSS | high polyreactivity
29 | QVQLVESGGGLVQAGGSLRLSCAASGITFYSNAMGWYRPAPGKERELVAAISYRGGSTYYADSVKGRFTISRDNAKNTVYLQMNSLKPEDTAVYYCNKEVDWGWGRISYDSWGQGTQVTVSS | low polyreactivity
30 | QVQLVESGVGLVQAGGSLRLSCAASGSTILQNAMGWYRQAPGKERELVAAISRSGGSTYYADSVKGRFTISRDNAKNTVYLQMNSLKPEDTAVYYCAAGGRRYDDDYWGQGTQVTVSS | high polyreactivity
31 | QVQLVESGGGLVQAGGSLRLSCAASGRIFARYAKGWSRQAPGKERELVAAISRGGSTKNADSVKGRFTISRDNAKITVYLQMNSLKPEDTAVYYCATEYYGPVYDLDYDYWGQGTQVTVSS | low polyreactivity
32 | QVQLVESGGGLVQAGGSLRLSCAASGRTFWLYAMGWYRQAPGKERELVARITRRDGSTNYADSVKGRFTISRDNAKNTVYLQMNSLKPEDTAVYYCAAGRFRYPPGAYDYWGQGIQVTVSS | high polyreactivity
33 | QVQLVESGGGLVQAGGSLRLSCAASGLIFVTNAMGWYRQAPGKERELVAAITRSGGSTYYADSVKGRFTISRDNAKITVYLQMNSLKPEDTAVYYCATGFHYAYGYCGQGTQVTVSS | low polyreactivity
34 | QVQLVESGGGLVQAGGSLRLSCAASGSISVRNVMGWYRQAPRKERELVATIRRTGGSTSYADSVKGRFTISRDNAKNTVYLQMNSLKPEDTAVYYCAAVGYTTYRRYDYWGQGTQVTVSS | low polyreactivity
35 | QVQLVESGGGLVQAGGSLRLSCAASGFTLGFNARGWYRQAPGKERELVAAITIGGTTYYADSVKGRFTISRDNAKNTVYLQMNSLKPEDTAVYYCAAARFLWFYVYTTRVQRYGYWGQGTQVTVSS | low polyreactivity
36 | QVQLHESGGGLVQAGGGLRLSCAASGSISSTGFMGWYRQAPGKEREPVAAIAPGTTTYYADSVKGRFTISRDNAKNTVYLQMNSLRPEDTAVFYCAVFTDNRVSFRYWGQGTQVTVSS | low polyreactivity
37 | QVQLVESGGGLVQAGGSHRLSCAASGRIFGPYTMGWYRQAPGKERELVAAISLSGGSTYYADSVKGRFTISRDNAKNTVYLQMNRLKAEDTAVYYCNADHPFPQYEGGSWGQGTQVTVSS | low polyreactivity
38 | QVQLVESGGGLVQAGGSLRLSCAASGSIFTYYAMGWYRPAPGKERELVATITRRGGRTYYADSVKGRFTISRDNAKNTVYLQMNSLKPEDTAVYYCATRIRTVAYNYWGQGTQVTVSS | high polyreactivity
39 | QVQLQESGGGLVQAGGSLRLSCAASCTISQEDWMGSYRQAPGKEREFVAAIGLGSNTNYADSLKGRFTISRDNAKNTVYLQMNSLKPEDTAVYYCAVSVWQYSDHVYRGQGTQVTVSS | low polyreactivity
40 | QVQLLESGGGLVQAGGSLRFTGAASGSTIAGNAMVWYRHEPGKERELVAVITRGGSTNYADSVKGRFTISRDNAKNNVYLQMNSLKPEDTAVYYCARYRFLLDYWRGGYYWGQGTQVTVSS | high polyreactivity
41 | QVQLVESGGGLVQAGGSLRLSCAASGRIFWSYAMGWYRPAPGKERELVAAISYSGGGTYYADSVKGRFTISRDNAKNTVYLQMNSLKPEDTAVYYCAAETYYAPYDYWGQGTQVTVSS | high polyreactivity
42 | QVQLVESGGGLVQAGGSLRISCAASGFIFPWYTMGWYRQAPGKERELVAVINQSGGSTYYADSVKGRFTISRDNAKNTVYLQMNSLKPEDTAVYYCAARLVKQYYYWGQGTQVTVSS | high polyreactivity
43 | QVQLVESGGGLVQAGGSLRLSCAASGSIISAYVMGWYRQAPGKERELVAAITRSGGSTYYADSVKGRFTISRDNAKNTVYLQMNSLTPEDTAVYYCAAKSIIRPYAPRRDDMDYWGQGTQVTVSS | low polyreactivity
